In US20210009686A1 (BEIJING XUANYI PHARMASCIENCES, published 2021):

What was measured:
claudin 18.2 (CLDN18.2) [1] = target: T1, claudin 18.2 (CLDN18.2) (human); assay: FACS, HEK293-CLDN18.2 cells
T1 construct: also called Claudin 18 isotype 2; HEK293-CLDN18.2
Experimental: The interaction of 20 purified chimeric antibodies with CLDN18.2 was assessed by in-cell ELISAs and FACS using HEK293-CLDN18.2 cells. […] The FACS assays were performed as follows: Serial dilutions for each antibody clone shown in Tables 7 and 8 were prepared and stained with HEK293-CLDN18.2 cells on ice for 30 min, with final antibody concentrations of 10 g/ml, 3 g/ml, 1 g/ml, 0.3 μg/ml, 0.1 μg/ml, 0.03 μg/ml, 0.01 μg/ml, and 0 μg/ml. […] Cells were washed, and analyzed by FACS.

claudin 18.1 (CLDN18.1) = target: T2, claudin 18.1 (CLDN18.1) (human, UniProt P56856 1-261); assay: in-cell ELISA, HEK293-CLDN18.1 cells
T2 construct: also called HEK293-CLDN18.1
Experimental: (§1) In-cell ELISAs were performed as follows: 5×10³ HEK293-CLDN18.2 cells were seeded per well in a poly-L-lysine-coated 96-well plate. The plates were then incubated at 37° C. with 5% CO₂ for 2 days. Following incubation, culture media was removed from each well, and the HEK293-CLDN18.2 cells were blocked with 200 μl blocking buffer (3% BSA/PBS (pH 7.4)) per well for 1 hour at room temperature. Each hybridoma supernatant was incubated with cells at room temperature for 1 hour. Cells were gently washed 3 times with 200 μl PBS (pH 7.4) containing 1 mM Ca²⁺ and 0.5 mM Mg²⁺. Next, cells were incubated with 100 μl of HRP-conjugated goat anti-human IgG (H+L) antibody for 1 hour at room temperature. Following the incubation, the cells were washed three times with 200 μl PBS (pH 7.4) containing 1 mM Ca²⁺ and 0.5 mM Mg²⁺. 100 μl of 1-Step™ Ultra TMB-ELISA Substrate was added to each well, and the reactions were stopped by addition of 50 μl of stop solution. OD₄₅₀ was measured using CLARIOStar microplate reader. The in-cell ELISAs were repeated for each clone using HEK293-CLDN18.1 cells.

claudin 18.2 (CLDN18.2) [2] = target: T1, claudin 18.2 (CLDN18.2); assay: in-cell ELISA, HEK293-CLDN18.2 cells
Experimental: as §1
The in-cell ELISAs were performed as described above. […] Cells were washed, and analyzed by FACS.

T2 sequence (P56856 whole entry): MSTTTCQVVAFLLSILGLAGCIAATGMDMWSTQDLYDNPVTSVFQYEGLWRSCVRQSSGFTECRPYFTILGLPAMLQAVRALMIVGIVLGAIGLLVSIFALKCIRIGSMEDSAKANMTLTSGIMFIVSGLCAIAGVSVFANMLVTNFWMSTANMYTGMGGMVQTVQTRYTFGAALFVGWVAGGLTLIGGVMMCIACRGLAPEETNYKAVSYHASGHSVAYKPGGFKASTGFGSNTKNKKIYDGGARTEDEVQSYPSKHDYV

| Binder | EC50 (claudin 18.2 (CLDN18.2) [1]) [µg/mL] | binding result (claudin 18.1 (CLDN18.1)) | EC50 (claudin 18.2 (CLDN18.2) [2]) [µg/mL] |
| --- | --- | --- | --- |
| chimeric Ab 6-C5-A (antibody, V domains shown) VH: EVQLVESGGGLVKPGGSRKLSCAASGFTFSDYGMHWVRQAPEKGLEWVAYISSGSSTIYYADTMKGRFTISRDNAKNTLFLQMTSLRSEDTAMYYCTRFARGNTMDYWGQGTSVTVSS VL: DIVMTQSPSSLTVTAGEKVTMSCKSSQSLLNSGNQRNYLTWYQRKPGQPPKLLIYWASTRESGVPDRFTGSGSGTDFTLTISSVQAEDLTFYYCQNGYSYPLTFGAGTKLELK | 0.044 | no binding (tested: 1 µg/ml) | 0.058 |
| chimeric Ab 9-B11-A (antibody, V domains shown) VH: EVQLVESGGGLVKPGGSRKLSCAASGFTFSDYGMHWVRQAPEKGLEWVAYISSGSSPIYYADTVKGRFTISRDNAKNTLFLQMTSLRSEDTAMYYCARFARGNAMDYWGQGTSVTVSS VL: DIVMTQSPSSLTVTAGEKVTMSCKSSQSLLNSGNQKNYLTWYQQKPGQPPKLLIYWASTRDSGVPDRFTGSGSGTDFTLTISSVQAEDLAVYYCQNNYYYPLTFGAGTNLELK | 0.045 | no binding (tested: 1 µg/ml) | 0.069 |
| chimeric Ab 9-C6-A (antibody, V domains shown) VH: EVQLVESGGGLVKPGGSRKLSCAASGFTFSDYGMHWVRQAPEKGLEWVAYISSGSSTIYYADTMKGRFTISRDNAKNTLFLQMTSLRSEDTAMYYCARFVRGNSMDYWGQGTSVTVSS VL: DIVMTQSPSSLTVTAGEKVTLSCKSSQSLLNSGNQKNYLTWYQQKPRQPPKLLIYWASTRESGVPDRFTGSGSGTDFTLTISNVQAEDLTVYYCQNAYSYPLTFGAGTKLELK | 0.032 | – | 0.491 |
| chimeric Ab 10-K12-A (antibody, V domains shown) VH: EVQLVESGGGLVKPGGSRKLSCAASGFTFSDYGMFWVRQAPEKGLEWVGYISSGSSNIYYADTVKGRFTISRDNAKNTLFLQMTSLRSEDTAMYYCARIARGNAMDYWGQGTSVTVSS VL: DIVMTQSPSSLTVTAGEKVTMSCKSSQSLLNSGNQKNYLTWYQQKPGQPPKLLIYWASTRESGVPDRFTGSGSGTDFTLTISSVQAEDLAIYYCQNDYFYPLTFGAGTKLELK | 0.075 | – | 0.05 |
| chimeric Ab 1-M5-A (antibody, V domains shown) VH: EVQLVESGGALVKSGGSLRLSCAASGFTFSNNAMSWIRQTPEKRLEWVATIIIGGTYTYYPDSVKGRFTISRDNAKNTLYLQMSSLRSEDTAFYYCARQVYGNSFAYWGQGTLVSVSA VL: DIVMTQSPSSLTVTAGEKVTMSCKSSQSLLNSGNQKNYLTWYQQKPGQPPKLLIYWASTRESGVPDRFTGSGSGTDFTLTISSVQAEDLAVYYCQNNYFYPFTFGSGTKLEIK | 0.044 | no binding (tested: 1 µg/ml) | 0.042 |
| chimeric Ab 1-B13-A (antibody, V domains shown) VH: QVQLQQSGAELARPGASVKLSCKASGYTFTVWSMSWVKQRTGQGLQWIGEIYPKSGNTHYNEKFKGKATLTADKSSSTVYMQLSSLTSEDSAVYFCARAYYGNSFAYWGQGTLVTVPA VL: DIVMTQSPSPLTVTAGEKATMSCKSSQSLLNSGNQRNYLTWYQQKPGQPPKLLIYWASTRESGVPDRFTGSGSGTDFSLTISSVQAEDLAVYYCQNDFIYPFTFGSGTKLEIK | 0.036 | – | 0.059 |
| chimeric Ab 2-D22-A (antibody, V domains shown) VH: EVQLVESGGGLVKPGGSRKLSCAASGFTFSDYGMHWVRQAPEKGLEWIAYISSGSSSIYYADTVKGRFTMSRDNAKKTLFLQTTSLRSEDTAMYYCARIARGNAMDYWGQGTSVTVTS VL: DIVMTQSPSSLTVTAGEKVTMSCKSSQSLLNSGNQRNYLAWYQQKPGQPPKLLIYWASTRESGVPDRFTGSGSGTDFTLTISSVQAEDLAVYYCQNDYSYPLTFGAGTKLELK | 0.051 | – | 0.065 |
| chimeric Ab 6-M11-A (antibody, V domains shown) VH: EVQLVESGGGSVKPGGSRKLSCAASGFTFSDYGMHWVRQAPEKGLEWVAYISSGSNTFYYTDTVKGRFTISRDNAKNTLFLQMTGLRSEDTAMYYCARFTRGNALDYWGQGTSVTVSS VL: DIVMTQSPSSLTVTAGEKVTMSCKSSQSLLNSGNQKNYLTWYQQKPGQPPKLLLYWASTRESGVPDRFTGSGSGTDFTLTISSVQAEDLTVYYCQNAYSYPLTFGAGTKLELK | 0.026 | – | 0.098 |
| chimeric Ab 7-G17-A (antibody, V domains shown) VH: EVQLVESGGGLVKPGGSRKLSCAVSGFTFSDYGMYWVRQAPEKGLEWVAYISSGSSTIYYADTVKGRFTMSRDNAKNTLFLQMTSLRSEDTAMYYCARIARGNAMDYWGQGTSVTVSS VL: DIVMTQSPSSLTVTPGEKVTMSCKSSQSLFNSGNQRNYLAWYQQKPGQPPKLLIYWASTRESGVPDRFTGSGSGTDFTLTISSVQAEDLAVYYCQNDYFYPLTFGAGTKLELK | 0.033 | – | 0.098 |
| chimeric Ab 9-A13-B (antibody, V domains shown) VH: EVQLVESGGGLVKPGGSRKLSCAASGFSFSDYGMHWVRQAPEKGLEWVAHISSGSSTIYYADTMKGRFTISRDNAKNTLFLQMTSLRSEDTAMYYCARFARGNTMDYWGQGTSVTVSS VL: DIVMTQSPSSLTVTAGEKVTMSCKSSQSLLNSGNQKNYLTWYQQKPGQPPKLLIYWASTRESGVPDRFTGSGSGTDFTLTISSVQAEDLTVYYCQNGYSYPLTFGAGTKLELK | 0.068 | – | 0.15 |
| chimeric Ab 9-M7-A (antibody, V domains shown) VH: EVQLVESGGALVKPGGSLKLSCAASGFTFSNYAMSWIRQTPEKRLEWVATIIIGGTYTYYPDSVKGRFTISRDNAKNTLYLQMSSLRSEDTALYYCARQVYGNSFAYWGQGTLVTVSA VL: DIVMTQSPSSLTVTAGEKVTMSCKSSQSLLNSGNQKNYLTWYQQKPGQPPKLLIYWASTRESGVPDRFTGSGSGTDFTLTISSVQAEDLAVYYCQNNYIYPFTFGSGTKLEIK | 0.095 | no binding (tested: 1 µg/ml) | 0.154 |
| chimeric Ab 9-N14-A (antibody, V domains shown) VH: EVQLVESGGGLVKPGGSRKLSCAASGFTFSDYGMYWVRQAPEKGLEWLAYISSGSNNIYYADTVKGRFTISRDNAKNTLFLQMTSLRSEDTAMYYCARIARGNAMDYWGQGTSVIVSS VL: DIVMTQSPSSLTVTAGEKVTMSCKSSQSLLNSGNQKNYLTWYQQKPGQPPKLLIYWASTRESGVPDRFTGSGSGTDFTLTISSVQAEDLAVYYCQNDYIYPLTFGAGTKLGLK | 0.075 | no binding (tested: 1 µg/ml) | 0.218 |
| chimeric Ab 10-J10-B (antibody, V domains shown, also called 10-110-B; 10-10-B) VH: QVQLQQSGAELARPGASVKLSCKASGYTFTSWSISWVKQRTGQGLEWIGEIYPRSDNIHYNEKFKGKATLTADKSSSTVYMQLSSLTSEDSAVYFCARAYYGNSFAYWGQGTLVTVSA VL: DIVMTQSPSSLTVTAGEKVTMTCKSSQILLNSGNQKNYLTWYQQKPGQPPKLLIYWASTRESGVPDRFTGSGSGTDFSLTISSVQAEDLAIYYCQNDYYYPFTFGSGTKLEIK | 0.141 | no binding (tested: 1 µg/ml) | 0.062 |
| chimeric Ab 10-P12-A (antibody, V domains shown) VH: EIQLQQSGAELVKPGTSVKISCKASGYSFTGYNMNWVKQSHGKSLEWIGNINPYYSNTNYNQRFKGKATLTVDKSSSTAYMQLNSLTSEDSAVYYCARHVRGNSFDYWGQGTTLTVSS VL: DIVMTQSPSSLTVTAGERVTVGCKSRQSLFNSENQKNYLSWYQQKPGQPPKLLLYWTSTRESGVPERFTGSGSGTDFTLTISSVQAEDLAVYYCQNNYIYPFTFGSGTKLEIK | 0.018 | – | 0.106 |
| chimeric Ab 1-H16-A (antibody, V domains shown) VH: EVQLVESGGGLVKPGGSRKLSCAASGFTFSDYGMYWVRQAPEKGLEWVAFISSGSSTIYCADTVKGRFTISRDNAKNTLFLQMTSLRSEDTAMYYCARIARGNAMDYWGQGTSVTVSS VL: DIVMTQSPSSLTVTAGERVTMSCKSSQSLLNSGNLKNYLTWYQQKPGQPPKLLIYWASTRESGVPDRFTGSGSGTDFTLTISTVQAEDLAVYYCQNDYFYPLTFGAGTKLELK | 0.101 | – | 0.08 |
